Patent US12134788B2, “Engineered prephenate dehydrogenases and arogenate dehydrogenases and methods of using the same” (Wisconsin Alumni Research Foundation, priority 2017, dated 2024)

Assays:
[1] = substrate: N[C@@H](CC1(C(=O)O)C=CC(O)C=C1)C(=O)O; assay: ADH and PDH assay: steady-state kinetics and Tyr inhibition, MtncADH wild type; format: biochemical, Medicago truncatula; details: other: 0.5 mM NADP^+, pH 7.6, 37° C.
Description: (§1) Kinetic parameters of purified recombinant proteins were determined from assays conducted at varying arogenate (19.5 μM-5 mM) and prephenate concentration (23.4 μM-6 mM). Standard assay conditions were 25 mM HEPES pH 7.6, 50 mM KCl and 10% (v/v) ethylene glycol, and 0.5 mM NADP^+ with varied substrate, concentrations. Reactions were initiated by addition of enzyme and incubated at 37° C. monitored every 10-15 seconds at […] using a microplate reader (Tecan Genios). Kinetic parameters were determined by fitting initial velocity data to the Michaelis-Menten equation using the Origin software (OriginLab).
(§2) Arogenate was prepared by enzymatic conversion of prephenate (Sigma-Aldrich) as previously reported^56. For Tyr inhibition assays, Tyr was dissolved in a slightly basic solution (0.025 N NaOH) due to solubility issues, thus the concentration of lysis buffer was increased to 500 mM HEPES final concentration to buffer against the changes by addition of Tyr in the reaction. Reactions containing varying amounts of Tyr (10 μM-8 mM) with 0.5 mM NADP^+ and either 1 mM arogenate or 0.8 mM prephenate were monitored as above.

[2] = substrate: O=C(O)C(=O)CC1(C(=O)O)C=CC(O)C=C1; assay: as above; format: biochemical, Medicago truncatula; details: other: 0.5 mM NADP^+, pH 7.6, 37° C.
Description: as §1, §2

[3] = substrate: N[C@@H](CC1(C(=O)O)C=CC(O)C=C1)C(=O)O; assay: ADH and PDH assay: steady-state kinetics and Tyr inhibition, MtPDH wild type; format: biochemical, Medicago truncatula; details: other: 0.5 mM NADP^+, pH 7.6, 37° C.
Description: as §1
as §2, with “Reactions containing varying amounts of Tyr (10 μM-8 mM) with 0.5 mM NADP^+ and either 1 mM arogenate or 0.8 mM prephenate were monitored as above.” left out

[4] = substrate: O=C(O)C(=O)CC1(C(=O)O)C=CC(O)C=C1; assay: as above; format: biochemical, Medicago truncatula; details: other: 0.5 mM NADP^+, pH 7.6, 37° C.
Description: as §1
as §2, with “Reactions containing varying amounts of Tyr (10 μM-8 mM) with 0.5 mM NADP^+ and either 1 mM arogenate or 0.8 mM prephenate were monitored as above.” left out

[5] = PDH assay: steady-state kinetics of purified recombinant plant enzymes with prephenate; format: biochemical; details: prephenate versus arogenate, NADP+ cofactor
Source text: As used herein, a polypeptide may “have greater arogenate dehydrogenase activity than prephenate dehydrogenase activity” or “have greater prephenate dehydrogenase activity than arogenate dehydrogenase activity” when the steady-state kinetic parameters (kcat/Km (mM^−1s^−1)) for arogenate dehydrogenase activity are greater than the steady-state parameters (kcat/Km (mM^−1s^−1)) for prephenate dehydrogenase activity or when the steady-state kinetic parameters (kcat/Km (mM^−1s^−1)) for prephenate dehydrogenase activity are greater than the steady-state parameters (kcat/Km (mM^−1s^−1)) for arogenate dehydrogenase activity. Steady-state kinetic parameters may be measured using techniques similar to those described by the inventors in the Examples. Briefly, kinetic parameters of purified polypeptides can be determined from assays conducted at varying arogenate and prephenate concentrations. Standard assay conditions include 25 mM HEPES pH 7.6, 50 mM KCl and 10% (v/v) ethylene glycol, and 0.5 mM NADP^+ with varied substrate, concentrations. Reactions can be initiated by the addition of the polypeptide and incubated at 37° C. monitored every 10-15 seconds at A340nm using a microplate reader. Kinetic parameters may be determined by fitting initial velocity data to the Michaelis-Menten equation using the Origin software.
as §1

[6] = substrate: N[C@@H](CC1(C(=O)O)C=CC(O)C=C1)C(=O)O; assay: ADH and PDH assay: steady-state kinetics and Tyr inhibition, SolyncADH wild type; format: biochemical, Solanum lycopersicum (tomato); details: other: 0.5 mM NADP^+, pH 7.6, 37° C.
Description: as §1, §2

[7] = substrate: N[C@@H](CC1(C(=O)O)C=CC(O)C=C1)C(=O)O; assay: ADH and PDH assay: steady-state kinetics and Tyr inhibition, GmncADH wild type; format: biochemical, Glycine max (soybean); details: other: 0.5 mM NADP^+, pH 7.6, 37° C.
Description: as §1, §2

[8] = substrate: N[C@@H](CC1(C(=O)O)C=CC(O)C=C1)C(=O)O; assay: ADH and PDH assay: steady-state kinetics and Tyr inhibition, GmPDH1 wild type; format: biochemical, Glycine max (soybean); details: other: 0.5 mM NADP^+, pH 7.6, 37° C.
Description: as §1
as §2, with “Reactions containing varying amounts of Tyr (10 μM-8 mM) with 0.5 mM NADP^+ and either 1 mM arogenate or 0.8 mM prephenate were monitored as above.” left out

[9] = substrate: O=C(O)C(=O)CC1(C(=O)O)C=CC(O)C=C1; assay: as above; format: biochemical, Glycine max (soybean); details: other: 0.5 mM NADP^+, pH 7.6, 37° C.
Description: as §1
as §2, with “Reactions containing varying amounts of Tyr (10 μM-8 mM) with 0.5 mM NADP^+ and either 1 mM arogenate or 0.8 mM prephenate were monitored as above.” left out

[10] = PDH assay of microbial TyrA enzymes (Example 2); format: biochemical
Description: ADH and PDH assays were performed using purified recombinant enzymes for SsTyrA and MhTyrA Wt and Q227E mutant, while the E. coli cell lysate was used for OiTyrA as expression and purification of this enzyme was unsuccessful. Reactions contained 0.8 mM substrate (arogenate or prephenate) and 0.8 mM cofactor (NADP+ or NAD+) together with reaction buffer (25 mM HEPES pH 7.6, 50 mM KCl, 10% (v/v) ethylene glycol). For OiTyrA assays containing cell lysates, reactions were incubated for 45 minutes and analyzed using HPLC as previously reported (Schenck et al., 2015). For pure enzymes, reactions were monitored every 10-15 seconds for reduced cofactor at A340 nm using a microplate reader (Tecan Genios). Kinetic parameters of purified recombinant enzymes were determined from assays containing varying concentrations of arogenate (39.1 μM-5 mM) or prephenate (39.1 μM-5 mM) substrate and monitored 10-15 seconds for reduced cofactor at A340 nm using a microplate reader (Tecan Genios). Kinetic parameters were determined by fitting initial velocity data to the Michaelis-Menten equation using Origin software (OriginLab) from technical replicate assays (n=3). Arogenate substrate was prepared by enzymatic conversion of prephenate (Sigma-Aldrich). All enzyme assays were conducted at a reaction time and protein concentration that were in the linear range and proportional to reaction velocity.

B1: MtncADH (Mt5g083530), Medicago truncatula noncanonical arogenate dehydrogenase, wild type (Medicago truncatula) (protein)
chain: MSNSPSLKIGIVGFGSFGQFLAKTMIKQGHTLTATSRTDYSHTCLQLGIQFFRDVGTFIEANNDVILICTSIMSFTKVLSSMPLACLKKPTTLFVDVLSVKEHPREVLLRVLPEESDILCTHPMFGPESGKNGWKDLNFMYDKVRIHDEATCSNFLHIFASEGCKMLQMSCEEHDKIAAKSQFITHTIGRTLAEMDIESTPIDTKGFQTLTQLKNTTMRDSFDLYSGLFVHNRFAKQELENLQRALDRVKEMLVQRMREELGPEKD
notes: wild type
Km [1]: 0.14 ± 0.02 mM | kcat [1]: 39 ± 7.6 s⁻¹ | kcat/Km [1]: 279000 M⁻¹ s⁻¹ | Km [2]: 6.69 ± 0.27 mM | kcat [2]: 0.3 ± 0.1 s⁻¹ | kcat/Km [2]: 45 M⁻¹ s⁻¹

B2: MtPDH (MtPDH1; Mt3g071980), Medicago truncatula prephenate dehydrogenase, wild type (Medicago truncatula) (protein)
chain: MSSSSKSLKIGIVGFGTFGQFLANTMIKQGHTLTATSRTDYSQLCDQMGIHFFRDITAFLDADMDVILLCTSISSLSEVVGSMPLACLKRPTLFVDVLSVKEHPKNLLLKVLPEESDILCTHPMFGPVSGKNGWQNLTFMFDKVRIKDEVTCSKFLQIFASEGCKMVEMSCEEHDKAAAKSQFITHTIGRTLAEMDIKSTPIDTKGFQTLVELKKPVMGCSFDLYSGLFVYNRFARQELENLEHALHKVKEMLVQRIDEGQNPERTES
Km [3]: 0.94 ± 0.04 mM | kcat [3]: 16.9 ± 1.1 s⁻¹ | kcat/Km [3]: 18000 M⁻¹ s⁻¹ | Km [4]: 0.05 ± 0.01 mM | kcat [4]: 18.5 ± 3 s⁻¹ | kcat/Km [4]: 370000 M⁻¹ s⁻¹

B3: MtPDH C220D: site-directed mutant of M. truncatula PDH, Cys220 to Asp (protein)
chain: MSSSSKSLKIGIVGFGTFGQFLANTMIKQGHTLTATSRTDYSQLCDQMGIHFFRDITAFLDADMDVILLCTSISSLSEVVGSMPLACLKRPTLFVDVLSVKEHPKNLLLKVLPEESDILCTHPMFGPVSGKNGWQNLTFMFDKVRIKDEVTCSKFLQIFASEGCKMVEMSCEEHDKAAAKSQFITHTIGRTLAEMDIKSTPIDTKGFQTLVELKKPVMGDSFDLYSGLFVYNRFARQELENLEHALHKVKEMLVQRIDEGQNPERTES
modifications: Synthetic: MtPDH C220D
notes: site-directed mutant of M. truncatula PDH, Cys220 to Asp
substrate specificity: PDH versus ADH activity (in words) [5]: reduced PDH activity and enhanced ADH activity

B4: SolyncADH (Slycopersicum06g050630), tomato noncanonical arogenate dehydrogenase, wild type (Solanum lycopersicum) (protein)
chain: MSSSSSCQPKTLRIGIIGFGPFAQFLAKTMMKQGHCIHVTSRSDYSELCTDLGILFFRDMGAFLESDNEVIMISTSILSLSQVVESIPFNCLKRPTLFVDVLSVKEHPKDVLLRMMPRECDLLCTHPMFGPESGKDGWEDLTFMYDMVRIRDQPLCSSFLHIFSSEGCKMLEMTCEKHDRLAAQSQFLTHTIGRILSEMEVEPTPIDTKGFQKLVQVKESSVKDSFDLFSGLFIHNRFARQQMKNLEVALEKTKEKLQERSKELQDPIISKF
notes: wild type
Km [6]: 0.45 ± 0.05 mM | kcat [6]: 15.9 ± 2.1 s⁻¹ | kcat/Km [6]: 35300 M⁻¹ s⁻¹

B5: SolyncADH: noncanonical arogenate dehydrogenase from tomato, wild-type (protein, listed as Solanum lycopersicum)
chain: MSSSSSCQPKTLRIGIIGFGPFAQFLAKTMMKQGHCIHVTSRSDYSELCTDLGILFFRDMGAFLESDNEVIMISTSILSLSQVVESIPFNCLKRPTLFVDVLSVKEHPKDVLLRMMPRECDLLCTHPMFGPESGKDGWEDLTFMYDMVRIRDQPLCSSFLHIFSSEGCKMLEMTCEKHDRLAAQSQFLTHTIGRILSEMEVEPTPIDTKGFQKLVQVKESSVKDSFDLFSGLFIHNRFARQQMKNLEVALEKTKEKLQERSKELQDPIISKF
modifications: misc_feature (1)..(272): SolyncADH WT
notes: noncanonical arogenate dehydrogenase from tomato, wild-type
substrate specificity: PDH versus ADH activity (in words) [5]: exhibited ADH but not PDH activity

B6: GmncADH (Gm14g05990), soybean (Glycine max) noncanonical arogenate dehydrogenase, wild type (Glycine max) (protein)
chain: MSTWSLKIGVVGFGSFGQFLAKTMIKQGHTLRATSRTDYSLLCLPMGIQFFRDVAAFLEADNDVILVCTSILSLSEVLSSMPLTCLKRSTLFVDVLSVKEHPRNLLIKVLPEESDILCTHPMFGPDSGKDGWQDLTFVYDKVRIRDEAICSSFLHIFASEGCRMLQMSCEEHDKIAAKSQFITHTIGRTLAEMDIKSTPIDTKGFHSLVQLKDTTIRDSFDLYSGLFLHNRFAVQELENLEHALHKVKEMLVQRKSEELGLEKTEC
notes: wild type
Km [7]: 0.41 ± 0.03 mM | kcat [7]: 27.7 ± 1.1 s⁻¹ | kcat/Km [7]: 67600 M⁻¹ s⁻¹

B7: GmPDH1 (Gm18g02650), soybean (Glycine max) prephenate dehydrogenase, wild type (Glycine max) (protein)
chain: MSTSSSSQSLKIGIVGFGNFGQFLAKTMIKQGHTLTATSRSDYSELCLQMGIHFFRDVSAFLTADIDVIVLCTSILSLSEVVGSMPLTSLKRPTLFVDVLSVKEHPRELLLRELPEDSDILCTHPMFGPQTAKNGWTDHTFMYDKVRIRDEVICSNFIQIFATEGCKMVQMSCEEHDRAAAKSQFITHTIGRTLGEMDIQSTPIDTKGFETLVKLKETMMRNSFDLYSGLFVYNRFARQELENLEHALHKVKETLMIQRTNGEQGHKRTES
notes: homodimer
Km [8]: 2.59 ± 0.09 mM | kcat [8]: 6.3 ± 0.7 s⁻¹ | kcat/Km [8]: 2430 M⁻¹ s⁻¹ | Km [9]: 0.09 ± 0.01 mM | kcat [9]: 30.4 ± 0.7 s⁻¹ | kcat/Km [9]: 338000 M⁻¹ s⁻¹

B8: GmPDH1 N222D: site-directed mutant of soybean PDH, Asn222 to Asp (protein)
chain: MSTSSSSQSLKIGIVGFGNFGQFLAKTMIKQGHTLTATSRSDYSELCLQMGIHFFRDVSAFLTADIDVIVLCTSILSLSEVVGSMPLTSLKRPTLFVDVLSVKEHPRELLLRELPEDSDILCTHPMFGPQTAKNGWTDHTFMYDKVRIRDEVICSNFIQIFATEGCKMVQMSCEEHDRAAAKSQFITHTIGRTLGEMDIQSTPIDTKGFETLVKLKETMMRDSFDLYSGLFVYNRFARQELENLEHALHKVKETLMIQRTNGEQGHKRTES
modifications: Synthetic: GmPDH1 N222D
notes: site-directed mutant of soybean PDH, Asn222 to Asp
substrate specificity: PDH versus ADH activity (in words) [5]: gained ADH activity

B9: Wild-type: wild-type archaeon TyrA from Methanosaeta harundinacea, recombinant (protein)
chain: MTTMANSGTKNRMLIVGGTGGTGSWFAKYFKEHGFLVSIWGPSGKVEVAERLGVKFARDLMAEVAKSDVVLLSVPIKETAKVVEEVAPRMRPGSLLMDVTSLKAEPMKAMLRWAPDGVEVLGTHPMFGPTIPTIRGQTVILVPAAGRCDEWLLPMEEIFQEDGARVEVLGAEEHDRIMAVVQALTHFAYISIGSTLRSLDFDIAHSRRLMSPVYEIMIDFVGRILAQSPELYSSIQENPEAKRVREAYIEECQRLSKLADTGNSEGFMEAMRSAADHFDEREVALARSDRLISLWIDHREGKRRGLEPRW
modifications: M. harundinacea; misc_feature (1)..(310): M. harundinacea TyrA MhTyrA
notes: wild-type archaeon TyrA from Methanosaeta harundinacea, recombinant
ADH and PDH activity (in words) ([10]; 0.8 mM arogenate or prephenate, 0.8 mM cofactor): strong PDH and very weak ADH activity | cofactor preference (in words) ([10]; PDH activity, NADP+ versus NAD+, 0.8 mM): strongly preferred NADP+ over NAD+ cofactor
